# Numbering of substitutions follows the chain as printed.
# T1: ALCAM/MEMD/CD166 (UniProt Q13740 28-583, limits assumed)
# T1 construct: whole, on cells; On Du-145 prostate cancer cells for FACS, and from lysates of surface-biotinylated Du-145 cells for IP/Western; Glycosylated, with a band of about 105 kDa; Du-145 is a human prostate cancer line
# T1 sequence (looked up): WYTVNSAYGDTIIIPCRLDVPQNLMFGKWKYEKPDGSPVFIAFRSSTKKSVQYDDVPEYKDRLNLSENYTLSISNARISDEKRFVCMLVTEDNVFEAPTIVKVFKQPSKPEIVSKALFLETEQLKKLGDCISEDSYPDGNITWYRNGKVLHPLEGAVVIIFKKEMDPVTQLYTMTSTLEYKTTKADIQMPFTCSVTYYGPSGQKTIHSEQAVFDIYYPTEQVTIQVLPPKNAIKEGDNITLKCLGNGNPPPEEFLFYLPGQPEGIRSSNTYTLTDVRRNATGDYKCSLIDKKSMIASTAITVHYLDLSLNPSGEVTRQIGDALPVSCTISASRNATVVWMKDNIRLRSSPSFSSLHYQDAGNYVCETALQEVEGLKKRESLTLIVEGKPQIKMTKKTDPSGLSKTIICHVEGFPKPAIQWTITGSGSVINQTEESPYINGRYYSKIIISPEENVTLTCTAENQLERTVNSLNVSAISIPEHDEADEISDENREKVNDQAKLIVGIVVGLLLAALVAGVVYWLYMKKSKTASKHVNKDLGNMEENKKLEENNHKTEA
# B1: anti-ALCAM IgG1 (585II41.1, also known as H3) (antibody, V domains shown)
# VH: QVQLVESGGGLVQPGGSLRLSCAASGFTFSSYAMSWVRQAPGKGLEWVSAISGSGGSTYYADSVKGRFTISRDNSKDTLYLQMNSLRAEDTAVYYCASRSLLDYWGQGTLVTVSS
# VL: NFMLTQDPAVSVALGQTVRITCQGDSLRSYYASWYQQKPGQAPLLVIYGKNNRPSGIPDRFSGSSSGNTASLTITGAQAEDEADYYCNSRDSSGNPVFGGGTKVTVL
# notes: Human IgG1 (detected with anti-human secondary antibody); also called H3 IgG; H3 IgG1
# B2: 585II41 scFv (scFv, not shown: small tags and cut ends)
# scFv: QVQLVESGGGLVQPGGSLRLSCAASGFTFSSYAMGWVRQAPGKGLEWVSAISGSGGSTYYADSVKGRFTISRDNSKDTLYLQMNSLRAEDTAVYYCASRSLLDYWGQGTLVTVSSGGGGSGGGGSGGGGSNFMLTQDPAVSVALGQTVRITCQGDSLRSYYASWYQQKPGQAPLLVIYGKNNRPSGIPDRFSGSSSGNTASLTITGAQAEDEADYYCNSRDSSGNPVFGGGTKVTVL
# notes: Soluble monomeric scFv from E. coli periplasm, purified by IMAC; Biotinylated for FACS analysis by the general methods; also called clone #10; H3 variant
# B3: H3 scFv (585II41.1) (scFv)
# scFv: B2 scFv with G35S
# notes: also called clone #11; anti-ALCAM scFv
# Key:
# ALCAM/MEMD/CD166 [1] = biological target: T1, ALCAM/MEMD/CD166; experiment: apparent KD by FACS on Du-145 cells, IgG1 incubated at 4° C. overnight, curve fitting of MFI
# Method: Monodispersed DU-145 cells were incubated with varying concentrations of IgG1s at 4° C. overnight to allow equilibrium binding. After washing, bound human IgG1s were detected by R-phycoerythrin-conjugated goat anti-human secondary antibody and analyzed by FACS. Mean fluorescence intensity (MFI) values were plotted and the KD was determined by curve fitting using GraphPad (GraphPad Software, San Diego, Calif.).
# ALCAM/MEMD/CD166 [2] = biological target: T1, ALCAM/MEMD/CD166; experiment: caption of the IHC table
# Text: Phage antibodies selected by LCM were expected to bind to clinically relevant antigens on cancer cells in situ. We performed immunohistochemical studies using soluble scFv fragments derived from LCM-selected phage antibody on prostate cancer tissue sections. […] The 585II41 scFv also stained tumor cells intensely on frozen tissue slides (FIG. 4, panel B). Some basal cells in normal epithelium adjacent to tumor were also stained with reduced intensity (Table 5). […] These experiments indicate that antibodies obtained from LCM selection bind to antigens that exist in patient specimens and thus are clinically relevant to human prostate cancer. The corresponding antigens are likely targets for therapeutic intervention.
# TABLE 5 Immunohistochemistry (IHC) results of the 585II41 and UA20 scFv fragments on a panel of frozen CaP and normal tissues. The numbers of cases studied are indicated. Biotinylated scFv fragments were first tested on cell lines to ensure binding activity and then used for IHC studies. As a control, a random scFv with no binding activity to cell lines was used to register the background level of staining. No change, no change in staining level was observed when compared with the result of the control scFv
# ALCAM/MEMD/CD166 [3] = biological target: T1, ALCAM/MEMD/CD166; experiment: FACS competition on Du-145 cells against 585II41 scFv
binder,measurement,setting,value
B1,Kd,ALCAM/MEMD/CD166 [1],4.4 µM
B2,binding result,ALCAM/MEMD/CD166 [2],binds
B3,binding result,ALCAM/MEMD/CD166 [3],binds

# Source: patent publication US20100233165A1 (published 2010)
